Data on two molecules can be found in paper doi:10.1101/2020.10.13.338178.

The target of experiment [1] is T1, Plasmodium vivax M17 aminopeptidase (Plasmodium vivax) (UniProt A5K3U9).
T1 sequence (A5K3U9 74-621, looked up): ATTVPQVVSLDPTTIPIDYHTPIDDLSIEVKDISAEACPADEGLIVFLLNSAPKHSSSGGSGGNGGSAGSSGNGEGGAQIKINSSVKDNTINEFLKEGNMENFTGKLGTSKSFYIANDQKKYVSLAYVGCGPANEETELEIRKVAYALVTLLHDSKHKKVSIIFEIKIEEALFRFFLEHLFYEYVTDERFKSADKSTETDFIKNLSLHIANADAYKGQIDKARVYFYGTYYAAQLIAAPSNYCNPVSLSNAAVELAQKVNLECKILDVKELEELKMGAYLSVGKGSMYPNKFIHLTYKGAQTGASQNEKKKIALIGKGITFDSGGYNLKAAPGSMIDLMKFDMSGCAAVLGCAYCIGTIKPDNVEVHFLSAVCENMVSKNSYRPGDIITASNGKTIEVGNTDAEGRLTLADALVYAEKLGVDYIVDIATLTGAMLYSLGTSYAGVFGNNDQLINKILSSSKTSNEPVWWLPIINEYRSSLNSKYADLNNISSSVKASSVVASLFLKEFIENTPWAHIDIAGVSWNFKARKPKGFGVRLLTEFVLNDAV

In experiment [2] the target is Plasmodium berghei M17 aminopeptidase (Plasmodium berghei).
In experiment [3] the target is T2, Plasmodium falciparum M17 leucine aminopeptidase (Plasmodium falciparum) (UniProt Q8IL11).
T2 sequence: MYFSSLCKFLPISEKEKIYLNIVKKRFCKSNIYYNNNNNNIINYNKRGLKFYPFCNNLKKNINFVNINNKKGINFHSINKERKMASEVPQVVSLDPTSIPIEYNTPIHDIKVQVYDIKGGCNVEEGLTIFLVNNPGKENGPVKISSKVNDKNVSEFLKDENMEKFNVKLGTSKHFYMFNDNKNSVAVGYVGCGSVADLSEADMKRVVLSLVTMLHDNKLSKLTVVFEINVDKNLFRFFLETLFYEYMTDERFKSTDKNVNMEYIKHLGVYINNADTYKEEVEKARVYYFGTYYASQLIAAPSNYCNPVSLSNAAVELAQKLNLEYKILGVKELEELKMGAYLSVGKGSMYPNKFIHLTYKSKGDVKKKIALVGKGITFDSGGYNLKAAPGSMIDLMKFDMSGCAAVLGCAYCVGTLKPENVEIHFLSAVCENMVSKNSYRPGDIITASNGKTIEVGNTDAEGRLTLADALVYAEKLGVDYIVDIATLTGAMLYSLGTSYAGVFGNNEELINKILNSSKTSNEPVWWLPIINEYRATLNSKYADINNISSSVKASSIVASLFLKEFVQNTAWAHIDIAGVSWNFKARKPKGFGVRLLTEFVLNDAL

The target of experiment [4] is Plasmodium vivax M1 aminopeptidase (Plasmodium vivax).
The target in experiment [5] is Plasmodium berghei M1 aminopeptidase (Plasmodium berghei).

No end group written: not given here. *: point of attachment. AMC = Cc1cc(=O)oc2cc(N*)ccc12

Turning to “Leucine-Leucine-7-amido-4-methyl-coumarin (peptide)”, the Km of hydrolysis (release of NHMec, Michaelis-Menten kinetics, 1 mM CoCl2) was 32.9 µM in experiment [1], 25 µM in experiment [2] and 30.8 µM in experiment [3]. Also, the Km of hydrolysis (release of NHMec, Michaelis-Menten kinetics) is 27.9 µM in experiment [4] and 28.4 µM in experiment [5].

B1: Leucine-Leucine-Leucine-Leucine-7-amido-4-methyl-coumarin (peptide)
peptide: LLLL-{AMC}
For B1, the Km of hydrolysis (release of NHMec, Michaelis-Menten kinetics, 1 mM CoCl2) came to 22.6 µM in experiment [1], 4.6 µM in experiment [2] and 6.9 µM in experiment [3]. For the same molecule, the Km of hydrolysis (release of NHMec, Michaelis-Menten kinetics) turned out to be 41.5 µM in experiment [4] and 33.9 µM in experiment [5].
